In US6528630:

Columns and labels:
[1] = target: T1, α1B-1α2b human neuronal calcium channel subunit combination (human); test: Bmax of 125I-ω-CgTx GVIA binding, against α1B-1 alone
[2] = target: human neuronal calcium channel α1B-1 subunit alone (human); test: saturation binding of 125I-ω-CgTx GVIA to transfected HEK293 cells
[3] = target: T1, α1B-1α2b human neuronal calcium channel …; test: as above

B1: 125I-ω-CgTx GVIA, P01522 46-72 (peptide)
peptide: CKSPGSSCSPTSYNCCRSCNPYTKRCY
modifications: not checked
fold change of binding capacity [1]: 3 fold | Bmax [2]: 757 sites/cell | Kd [2]: 0.0317 nM | Bmax [3]: 2260 sites/cell | Kd [3]: 0.0846 nM
